Experimental data from patent US20020025923A1 (University of California, published 2002).

B1: CD34, component of PNAd from human tonsil (ligand, UniProt P28906 32-385, looked up)
chain: SLDNNGTATPELPTQGTFSNVSTNVSYQETTTPSTLGSTSLHPVSQHGNEATTNITETTVKFTSTSVITSVYGNTNSSVQSQTSVISTVFTTPANVSTPETTLKPSLSPGNVSDLSTTSTSLATSPTKPYTSSSPILSDIKAEIKCSGIREVKLTQGICLEQNKTSSCAEFKKDRGEGLARVLCGEEQADADAGAQVCSLLLAQSEVRPQCLLLVLANRTEISSKLQLMKKHQSDLKKLGILDFTEQDVASHQSYSQKTLIALVTSGALLAVLGITGYFLMNRRSWSPTGERLGEDPYYTENGGGQGYSSGPGTSPEAQGKASVNRGAQENGTGQATSRNGHSARQHVVADTEL
modifications: native glycoprotein carrying the MECA-79 epitope
B2: L-selectin/IgG chimera (entire extracellular domain of murine L-selectin fused to the Fc domain of human IgG1) (Fc fusion, UniProt P18337 39-332, looked up)
chain: WTYHYSEKPMNWENARKFCKQNYTDLVAIQNKREIEYLENTLPKSPYYYWIGIRKIGKMWTWVGTNKTLTKEAENWGAGEPNNKKSKEDCVEIYIKRERDSGKWNDDACHKRKAALCYTASCQPGSCNGRGECVETINNHTCICDAGYYGPQCQYVVQCEPLEAPELGTMDCIHPLGNFSFQSKCAFNCSEGRELLGTAETQCGASGNWSSPEPICQVVQCEPLEAPELGTMDCIHPLGNFSFQSKCAFNCSEGRELLGTAETQCGASGNWSSPEPICQETNRSFSKIKEGDYN
notes: extracellular domain; From supernatants of transfected 293 cells, protein-A purified; also called recombinant L-selectin/IgG chimera; not shown: Fc domain of human IgG1

Assays:
[1] = biological target: T1, CD4/IgG chimera (entire extracellular domain of human CD4 fused to the Fc domain of human IgG1) (human, UniProt P01730 26-396); test: precipitation of PNAd with the IgG chimera (CD34 as a named component of PNAd)
T1 construct: extracellular domain; Control chimera; also called control CD4/IgG chimera; not shown: Fc domain of human IgG1

[2] = biological target: B1; test: precipitation of PNAd with the L-selectin/IgG chimera, elution with EDTA

binding result [1] | binding result [2] | Binder
no binding |  | B1
 | binds | B2
